Target: IM-CA22
Assay: competition ELISA: 0.5 µg/mL peptide added to prevent the binding of AS-SPIK with IM-CA22; inhibition rate from OD value with vs without peptide

Sequence of IM-CA22 (VH, as listed by the source, chain 1 of 2): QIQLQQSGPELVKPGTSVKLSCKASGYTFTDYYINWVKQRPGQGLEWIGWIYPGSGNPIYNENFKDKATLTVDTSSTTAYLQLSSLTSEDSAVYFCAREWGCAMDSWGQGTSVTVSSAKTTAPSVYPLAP
Sequence of IM-CA22 (VL, as listed by the source, chain 2 of 2): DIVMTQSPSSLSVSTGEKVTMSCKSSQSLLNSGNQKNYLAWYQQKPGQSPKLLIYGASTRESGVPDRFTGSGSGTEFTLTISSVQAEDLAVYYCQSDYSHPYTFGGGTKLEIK

Row | Binder | Inhibition % [%]
1 | SLSGNTGAD [SPIK7] | 6
2 | LSGNTGADS [SPIK6] | 6
3 | GNTGADSLG [SPIK4] | 6
4 | SGNTGADSL [SPIK5] | 5

— patent US20240043512A1
